The target of experiment [1] is HT-WG (hexahistidine-tagged WG fragment of N-WASP, amino acids 1-277) (bovine, UniProt Q95107 1-277). Description: pull-down.
In experiment [2] the target is HT-WGP (hexahistidine-tagged WGP fragment of N-WASP, amino acids 1-396) (bovine, UniProt Q95107 1-396). Put plainly: pull-down.

This note sets out measurements from article PMC2150699 (The Journal of Cell Biology, 2000).

HT-WGP (hexahistidine-tagged WGP fragment of N-WASP, amino acids 1-396), sequence (Q95107 1-396): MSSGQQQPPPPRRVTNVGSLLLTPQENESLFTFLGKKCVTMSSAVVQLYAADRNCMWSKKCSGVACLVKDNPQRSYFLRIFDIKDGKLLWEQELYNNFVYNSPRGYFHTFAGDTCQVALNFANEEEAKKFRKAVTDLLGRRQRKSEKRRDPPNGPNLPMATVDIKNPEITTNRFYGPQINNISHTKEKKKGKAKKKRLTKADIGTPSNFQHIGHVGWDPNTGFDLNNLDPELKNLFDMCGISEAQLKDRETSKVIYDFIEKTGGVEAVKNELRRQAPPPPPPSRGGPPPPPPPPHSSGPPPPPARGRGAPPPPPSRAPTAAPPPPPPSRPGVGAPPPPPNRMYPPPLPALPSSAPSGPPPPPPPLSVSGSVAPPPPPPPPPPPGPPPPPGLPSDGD
HT-WG (hexahistidine-tagged WG fragment of N-WASP, amino acids 1-277), sequence (Q95107 1-277): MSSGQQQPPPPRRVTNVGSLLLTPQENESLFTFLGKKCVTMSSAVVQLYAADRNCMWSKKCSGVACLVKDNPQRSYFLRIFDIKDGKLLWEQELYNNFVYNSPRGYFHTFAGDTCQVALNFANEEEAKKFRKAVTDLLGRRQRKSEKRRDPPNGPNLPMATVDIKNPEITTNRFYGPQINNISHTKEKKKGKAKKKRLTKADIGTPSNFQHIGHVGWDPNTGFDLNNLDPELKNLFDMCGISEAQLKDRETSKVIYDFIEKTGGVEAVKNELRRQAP

B1: GST-VCA (GST fusion of the COOH-terminal VCA segment of bovine N-WASP, amino acids 392-505) (domain or fragment, UniProt Q95107 392-505, looked up)
chain: PSDGDHQVPTPAGSKAALLDQIREGAQLKKVEQNSRPVSCSGRDALLDQIRQGIQLKSVTDAPESTPPAPAPTSGIVGALMEVMQKRSKAIHSSDEDEDEDDDEDFEDDDEWED
For B1, the binding result in experiment [1] and in experiment [2] was “binds” in each case.
